Laboratory results taken from patent US20110046068A1 (MEDICAL RESEARCH COUNCIL, published 2011).
Values belong to the binder of their own block, whether it stands above or below them. Non-standard residues stand in square brackets, D forms with d. No end group written: not given here.

How the values were obtained:
human gpr-54 receptor [1] = biological target: T1, human gpr-54 receptor (human, UniProt Q969F8 1-398); test: cell-based or functional assay
human gpr-54 receptor [2] = biological target: T1, human gpr-54 receptor; test: cell-based or functional assay; remark: listed apart in the source
human gpr-54 receptor [3] = biological target: T1, human gpr-54 receptor; test: whole-cell competition binding against 125I-kisspeptin, CHO cells stably transfected with GPR54 (CPM) [229]
Description: (§1) Cell monolayers were placed on ice and exposed to 0.5 mls peptide (10 pM-1 uM); the cells were then incubated at 4° C. for 4 hr. After 4 hrs, cells were washed twice with ice cold Dulbecco's phosphate buffered saline (DPBS; with Calcium and Magnesium) and then 0.5 mls 0.1M Sodium Hydroxide (NaOH) were added to cells for 20 minutes, shaking to lyse cells. Lysates were transferred to plastic tubes and bound radioactivity counted on the gamma counter for 60 seconds.

human gpr-54 receptor [4] = biological target: T1, human gpr-54 receptor; test: whole-cell competition binding against 125I-kisspeptin, CHO cells stably transfected with GPR54 (CPM); upper curve, no lower plateau reached at -5 LogM [212]
Description: as §1

human gpr-54 receptor [5] = biological target: T1, human gpr-54 receptor; test: cell-based or functional assay; remark: listed apart in the source
human gpr-54 receptor [6] = biological target: T1, human gpr-54 receptor; test: cell-based or functional assay; remark: listed apart in the source
human gpr-54 receptor [7] = biological target: T1, human gpr-54 receptor; test: whole-cell competition binding against 125I-kisspeptin, CHO cells stably transfected with GPR54 (CPM) [210]
Description: as §1

human gpr-54 receptor [8] = biological target: T1, human gpr-54 receptor; test: whole-cell competition binding against 125I-kisspeptin, CHO cells stably transfected with GPR54 (CPM); the fall of the curve lies between Total and -11 LogM [202]
Description: as §1

human gpr-54 receptor [9] = biological target: T1, human gpr-54 receptor; test: cell-based or functional assay; remark: listed apart in the source
human gpr-54 receptor [10] = biological target: T1, human gpr-54 receptor; test: whole-cell competition binding against 125I-kisspeptin, CHO cells stably transfected with GPR54 (CPM); the drawn curve falls between Total and -10 LogM, which does not fit the printed number [207]
human gpr-54 receptor [11] = biological target: T1, human gpr-54 receptor; test: whole-cell competition binding against 125I-kisspeptin, CHO cells stably transfected with GPR54 (CPM); the fall of the curve lies between Total and -11 LogM [203]
Description: as §1

human gpr-54 receptor [12] = biological target: T1, human gpr-54 receptor; test: whole-cell competition binding against 125I-kisspeptin, CHO cells stably transfected with GPR54 (CPM); the fall of the curve lies between Total and -11 LogM [206]
Description: as §1

human gpr-54 receptor [13] = biological target: T1, human gpr-54 receptor; test: cell-based or functional assay; remark: listed apart in the source

T1 sequence (Q969F8 whole entry): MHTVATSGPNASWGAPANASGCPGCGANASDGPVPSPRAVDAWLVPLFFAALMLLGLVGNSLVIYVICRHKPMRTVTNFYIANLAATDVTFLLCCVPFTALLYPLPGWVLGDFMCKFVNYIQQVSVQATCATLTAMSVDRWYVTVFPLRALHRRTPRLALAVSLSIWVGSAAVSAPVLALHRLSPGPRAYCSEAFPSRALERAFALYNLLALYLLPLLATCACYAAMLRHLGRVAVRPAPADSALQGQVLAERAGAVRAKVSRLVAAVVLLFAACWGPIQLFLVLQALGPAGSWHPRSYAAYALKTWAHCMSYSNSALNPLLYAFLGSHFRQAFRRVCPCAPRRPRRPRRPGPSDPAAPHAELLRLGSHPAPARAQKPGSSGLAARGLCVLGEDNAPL

B4: 202 (peptide)
peptide: Ac-AGLRW-NH2
notes: kisspeptin-10 analogue; also called acAGLRW
- IC50 (human gpr-54 receptor [8]): 0.00032 nM
- IP competition with 10nM kisspeptin-10: IC50 [202] (human gpr-54 receptor [9]): 10 nM
- IP dose response, peptide alone: EC50 (unlabelled number beside rising curve; rise only at -5 LogM) [202] (human gpr-54 receptor [9]): 0.00109 M
- IP stimulation (IC50), peptide alone (human gpr-54 receptor [2]): > 100000 nM
- Inhibition of IP stimulation by 10nM Agonist: % Inhibition of Max (human gpr-54 receptor [2]): 64%
- Inhibition of IP stimulation by 10nM Agonist: IC50 (human gpr-54 receptor [2]): 10 nM

B5: 207 (peptide)
peptide: Ac-FG[dF]RF-NH2
SMILES: CC(=O)N[C@@H](Cc1ccccc1)C(=O)NCC(=O)N[C@H](Cc1ccccc1)C(=O)N[C@@H](CCCNC(=N)N)C(=O)N[C@@H](Cc1ccccc1)C(N)=O
notes: kisspeptin-10 analogue; also called acFG[(D)-F]RF
- IC50 (human gpr-54 receptor [10]): 110 nM
- Inhibition of IP stimulation by 10nM Agonist: % Inhibition of Max (human gpr-54 receptor [2]): 0%

B6: 203 (peptide)
peptide: Ac-[dF]WLRW-NH2
SMILES: CC(=O)N[C@H](Cc1ccccc1)C(=O)N[C@@H](Cc1c[nH]c2ccccc12)C(=O)N[C@@H](CC(C)C)C(=O)N[C@@H](CCCNC(=N)N)C(=O)N[C@@H](Cc1c[nH]c2ccccc12)C(N)=O
notes: kisspeptin-10 analogue; also called ac[F-(D)]WLRW
- IP competition with 10nM kisspeptin-10: IC50 [203] (human gpr-54 receptor [9]): 0.1 nM
- IP dose response, peptide alone: EC50 (unlabelled number beside rising curve; rise only at -5 LogM) [203] (human gpr-54 receptor [9]): 0.000156 M
- IP stimulation (IC50), peptide alone (human gpr-54 receptor [2]): 150000 nM
- Inhibition of IP stimulation by 10nM Agonist: % Inhibition of Max (human gpr-54 receptor [2]): 71%
- Inhibition of IP stimulation by 10nM Agonist: IC50 (human gpr-54 receptor [2]): 0.1 nM
- IC50 (human gpr-54 receptor [11]): 0.000307 nM

B7: 206 (peptide)
peptide: Ac-FG[dW]RF-NH2
SMILES: CC(=O)N[C@@H](Cc1ccccc1)C(=O)NCC(=O)N[C@H](Cc1c[nH]c2ccccc12)C(=O)N[C@@H](CCCNC(=N)N)C(=O)N[C@@H](Cc1ccccc1)C(N)=O
notes: kisspeptin-10 analogue; also called acFG[(D)-W]RF
- IC50 (human gpr-54 receptor [12]): 0.0352 pM
- Inhibition of IP stimulation by 10nM Agonist: % Inhibition of Max (human gpr-54 receptor [2]): 68%
- Inhibition of IP stimulation by 10nM Agonist: IC50 (human gpr-54 receptor [2]): 10 nM
- IP competition with 10nM kisspeptin-10: IC50 [206] (human gpr-54 receptor [13]): 10 nM

Other lines, results leading:

- IP competition with 10nM kisspeptin-10: IC50 [229] (human gpr-54 receptor [1]): 8000 nM
- Inhibition of IP stimulation by 10nM Agonist: % Inhibition of Max (human gpr-54 receptor [2]): 68%
- Inhibition of IP stimulation by 10nM Agonist: IC50 (human gpr-54 receptor [2]): 8000 nM
- IC50 (human gpr-54 receptor [3]): 1.17 nM
B1: 229 (peptide)
peptide: Ac-YNWN[dW]FG[dW]RF-NH2
SMILES: CC(=O)N[C@@H](Cc1ccc(O)cc1)C(=O)N[C@@H](CC(N)=O)C(=O)N[C@@H](Cc1c[nH]c2ccccc12)C(=O)N[C@@H](CC(N)=O)C(=O)N[C@H](Cc1c[nH]c2ccccc12)C(=O)N[C@@H](Cc1ccccc1)C(=O)NCC(=O)N[C@H](Cc1c[nH]c2ccccc12)C(=O)N[C@@H](CCCNC(=N)N)C(=O)N[C@@H](Cc1ccccc1)C(N)=O
notes: kisspeptin-10 analogue; also called acYNWN[(D)-W]FG[(D)-W]RF

- IC50 (human gpr-54 receptor [4]): 6330 nM
- IP competition with 10nM kisspeptin-10: IC50 [212] (human gpr-54 receptor [5]): < 0.1 nM
- IP dose response, peptide alone: EC50 (unlabelled number beside rising curve; rise only at -5 LogM) [212] (human gpr-54 receptor [5]): 0.000205 M
- IP stimulation (IC50), peptide alone (human gpr-54 receptor [2]): 300000 nM
- Inhibition of IP stimulation by 10nM Agonist: % Inhibition of Max (human gpr-54 receptor [2]): 88%
- Inhibition of IP stimulation by 10nM Agonist: IC50 (human gpr-54 receptor [2]): < 0.1 nM
B2: 212 (peptide)
peptide: YNWNG[dW]GLRF-NH2
modifications: N-terminus assumed
SMILES: CC(C)C[C@H](NC(=O)CNC(=O)[C@@H](Cc1c[nH]c2ccccc12)NC(=O)CNC(=O)[C@H](CC(N)=O)NC(=O)[C@H](Cc1c[nH]c2ccccc12)NC(=O)[C@H](CC(N)=O)NC(=O)[C@@H](N)Cc1ccc(O)cc1)C(=O)N[C@@H](CCCNC(=N)N)C(=O)N[C@@H](Cc1ccccc1)C(N)=O
notes: kisspeptin-10 analogue; also called YNWNG[(D)-W]GLRF

- IP competition with 10nM kisspeptin-10: IC50 [210] (human gpr-54 receptor [6]): < 0.1 nM
- IC50 (human gpr-54 receptor [7]): 1300 nM
- Inhibition of IP stimulation by 10nM Agonist: % Inhibition of Max (human gpr-54 receptor [2]): 64%
- Inhibition of IP stimulation by 10nM Agonist: IC50 (human gpr-54 receptor [2]): < 0.1 nM
B3: 210 (peptide)
peptide: YNWNGFG[dW]RF-NH2
notes: kisspeptin-10 analogue; also called compound 210
